The values below come from patent US20170008949A1 (Hoffmann-La Roche, published 2017).

In experiment [1] the target is recombinant non-glycosylated human PAI-1 (active), produced in E. coli as N-terminal 6xHis-tagged fusion … (human, UniProt P05121 24-402). Description: cell-based or functional assay.
Experiment [2] has as its target recombinant glycosylated human PAI-1 (active), produced in insect cells (human, UniProt P05121 24-402, glycosylated (sites not given)). Description: cell-based or functional assay.

Sequence of recombinant non-glycosylated human PAI-1 (active), produced in E. coli as N-terminal 6xHis-tagged fusion … (P05121 24-402 limits assumed): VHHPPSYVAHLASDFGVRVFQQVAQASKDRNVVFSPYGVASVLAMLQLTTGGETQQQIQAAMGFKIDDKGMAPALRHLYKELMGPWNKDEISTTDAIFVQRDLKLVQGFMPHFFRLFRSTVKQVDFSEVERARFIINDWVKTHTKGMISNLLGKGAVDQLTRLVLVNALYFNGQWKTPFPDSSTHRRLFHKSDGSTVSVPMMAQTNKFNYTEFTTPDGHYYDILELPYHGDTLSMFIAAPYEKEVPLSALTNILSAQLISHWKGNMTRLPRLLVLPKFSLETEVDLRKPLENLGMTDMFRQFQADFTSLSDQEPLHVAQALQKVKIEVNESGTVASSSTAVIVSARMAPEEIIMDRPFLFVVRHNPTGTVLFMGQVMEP
Sequence of recombinant glycosylated human PAI-1 (active), produced in insect cells (P05121 24-402 limits assumed): as above

B1: PAI1-0046 (reference PAI-1 latency inducing antibody with a human IgG4 SPLE Fc-region) (antibody, V domains shown)
VH: QVQLVQSGAEVKKPGASVKVSCKASGYTFTNYGMNWVRQAPGQGLEWMGWINTYTGEPTYTDDFKGRFTMTLDTSISTAYMELSRLRSDDTAVYYCAKDVSGFVFDYWGQGTLVTVSS
VL: DIVMTQSPDSLAVSLGERATINCKSSQSLLNIIKQKNCLAWYQQKPGQPPKLLIYWASTRESGVPDRFSGSGSGTDFTLTISSLQAEDVAVYYCQQYYSYPYTFGQGTKLEIKR
B1: the “IC50 (µM) vs. human PAI-1, PAI-1 inhibition assay (residual rPA serine protease activity)” value in experiment [1] is 0.005 µM; in experiment [2] it was 0.065 µM.
